The record followed here is patent US20170210813A1 (Regeneron, published 2017).

T1: Macaca fascicularis PDGFRb.mmh (Macaca fascicularis)
T1 construct: Soluble monomeric construct; also called mfPDGFRb.mmh
T1 chain: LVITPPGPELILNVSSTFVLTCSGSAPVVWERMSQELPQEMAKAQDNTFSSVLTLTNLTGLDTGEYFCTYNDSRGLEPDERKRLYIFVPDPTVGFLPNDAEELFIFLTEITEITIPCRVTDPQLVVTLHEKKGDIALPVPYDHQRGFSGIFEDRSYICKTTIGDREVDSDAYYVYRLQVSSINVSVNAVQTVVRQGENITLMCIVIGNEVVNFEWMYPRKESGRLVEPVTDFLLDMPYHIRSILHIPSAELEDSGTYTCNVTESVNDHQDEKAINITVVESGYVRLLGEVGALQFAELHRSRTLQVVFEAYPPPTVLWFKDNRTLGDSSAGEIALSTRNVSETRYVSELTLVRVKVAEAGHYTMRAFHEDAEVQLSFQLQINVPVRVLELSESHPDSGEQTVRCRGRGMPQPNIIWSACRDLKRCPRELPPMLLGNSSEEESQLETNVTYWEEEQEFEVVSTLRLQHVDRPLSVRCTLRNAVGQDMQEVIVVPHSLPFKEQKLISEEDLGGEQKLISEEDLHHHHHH

B1: H4H3096S (antibody, human IgG4, V domains shown)
VH: EVQLVQSGGSLVQPGGSLRLSCTASGFTFSSYWMSWVRQAPGKGLEWVANIQQDESEKYYVDSVKGRFSISRDNAKKSLYLQMNSLRAEDTAVYFCARDLVPPRQGDYYHYFGMDVWGQGTLVTVSS
VL: AIRMTQSPSTLSASVGDRVTITCRASQSISDWLAWYQQKPGKAPNLLIYKASSLESGVPSRFSGSGSGTEFTLTISGLQPDDFATYYCQQYNSYSRTFGQGTKLEIKR
notes: human IgG4 Fc (H4H prefix)
B2: H4H3102S (antibody, human IgG4, V domains shown)
VH: EVQLVESGGDLVHPGRSLRLSCVASGFTFDDYTMHWVRQAPGKGLEWVSAISWNGDNINYAGSVKGRFTISRDNAKNSLYLEMNSLRVEDTAFYYCAKGRGFSFGFNYLGQGTMVTVSS
VL: AIRMTQSPSSLSASVGDRVTITCRASQDISNYLAWFQQQPGKAPKSLIYATSSLNSGVPSKFSGSGSGTDFTLTISSLQPEDFATYYCQQYKSYPLTFGGGTKVEIK
notes: human IgG4 Fc (H4H prefix)
B3: H4H3104S (antibody, human IgG4, V domains shown)
VH: QVQLVESGGGLVQPGGSLRLSCAAAGFTFSHYWMSWVRQAPGKGLEWVATIKKDGSERYYVDSVKGRFTISRDNARNSMYLEMNSLRTEDTAIYYCARDIVTPNTDYYFGMDVWGQGTTVTVSS
VL: DIQLTQSPSTLSASVGDRVTITCRASQSFNNWLSWYQQKPGKAPKLLIYMASTLESGVPSRFSGSGSGTDFTLTINSLQPDDFATYYCQQSNSYSRTFGHGTKVEIK
notes: human IgG4 Fc (H4H prefix)
B4: H4H3098S (antibody, human IgG4, V domains shown)
VH: EVQLVESGGGVVQPGRSLRLSCAASGFTFSNYGMHWVRQAPGKGLEWVTVIWYDGSYKYYADSVKGRFTISRDNSKNRLYLQMNSLRAEDTAVYYCARGELGDAFDIWGQGTMVTVSS
VL: DIQMTQSPSTLSASVGDRLTITCRASQSISTWLAWYQQKPGKAPTLLIYKASSLESGVPSRFSGSGSGTDFTLTISSLQPDDFATYYCQQYKTSWTFGQGTKLEIKR
notes: human IgG4 Fc (H4H prefix)
B5: H4H3097S (antibody, human IgG4, V domains shown)
VH: QVQLVESGAEMKKPGASVKVSCKASGYTFTDYGINWVRQAPGQGLEWMGWVSGYNGNTVFAQKIQGRVTMTTDTSTSTAYMELRSLRSDDTAVYFCARISVRGHSYYHGMGVWGQGTTVTVSS
VL: AIRMTQSPSSLSASVGDRVTITCRASQDINSYLAWFQQKPGKAPKSLIYTASSLQSGVPSKFSGSGSGTDFTLTISSLQPEDFATYYCQQYNTYPYTFGQGTKVESK
notes: human IgG4 Fc (H4H prefix)

One assay deals with full length human PDGFR-beta on HEK293 cells (human, UniProt P09619 33-1106). Briefly: cell-based or functional assay.
Chain of full length human PDGFR-beta on HEK293 cells (P09619 33-1106 limits assumed): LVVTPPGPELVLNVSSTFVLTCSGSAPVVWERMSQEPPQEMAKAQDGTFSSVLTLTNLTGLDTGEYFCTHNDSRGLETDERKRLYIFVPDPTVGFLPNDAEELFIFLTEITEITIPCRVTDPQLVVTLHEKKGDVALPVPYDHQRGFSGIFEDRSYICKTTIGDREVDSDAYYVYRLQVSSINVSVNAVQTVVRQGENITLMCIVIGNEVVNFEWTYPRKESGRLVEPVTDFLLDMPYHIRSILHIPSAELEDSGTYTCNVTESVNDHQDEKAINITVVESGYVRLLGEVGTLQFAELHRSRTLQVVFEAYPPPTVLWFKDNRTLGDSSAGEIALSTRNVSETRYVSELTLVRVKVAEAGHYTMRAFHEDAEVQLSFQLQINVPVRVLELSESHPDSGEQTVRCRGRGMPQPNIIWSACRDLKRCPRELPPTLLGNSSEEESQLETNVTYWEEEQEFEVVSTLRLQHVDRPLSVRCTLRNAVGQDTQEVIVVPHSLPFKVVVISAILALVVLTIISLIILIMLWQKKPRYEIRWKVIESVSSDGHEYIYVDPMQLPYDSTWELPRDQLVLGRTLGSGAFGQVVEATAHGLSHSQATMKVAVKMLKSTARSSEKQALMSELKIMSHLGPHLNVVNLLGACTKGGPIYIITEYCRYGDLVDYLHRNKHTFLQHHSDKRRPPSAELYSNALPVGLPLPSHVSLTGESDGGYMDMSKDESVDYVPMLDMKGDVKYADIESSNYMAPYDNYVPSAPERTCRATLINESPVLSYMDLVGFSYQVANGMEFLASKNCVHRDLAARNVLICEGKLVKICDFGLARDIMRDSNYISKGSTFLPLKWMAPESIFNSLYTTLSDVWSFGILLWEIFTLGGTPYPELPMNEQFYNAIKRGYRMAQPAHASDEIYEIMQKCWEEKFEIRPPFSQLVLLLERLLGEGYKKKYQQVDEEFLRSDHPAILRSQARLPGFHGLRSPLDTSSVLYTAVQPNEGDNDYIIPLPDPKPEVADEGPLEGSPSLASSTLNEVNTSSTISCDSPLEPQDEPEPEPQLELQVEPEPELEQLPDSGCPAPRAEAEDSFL
With B1, the “IC50, blocking PDGF-BB (250 pM) activation, SRE-luciferase” value (“IC50, blocking PDGF-BB” below) came out at 4.5e-10 M and the “IC50, blocking PDGF-DD (400 pM) activation, SRE-luciferase” value (“IC50, blocking PDGF-DD” for short) is 5.8e-10 M.

Regarding B2, the “IC50, blocking PDGF-BB” value came out at 4.1e-09 M and the “IC50, blocking PDGF-DD” value amounted to 4.4e-09 M.

Take B3: the “IC50, blocking PDGF-BB” value came to 5e-10 M and the “IC50, blocking PDGF-DD” value worked out at 3.3e-10 M.

For B4, the “IC50, blocking PDGF-BB” value was 1.2e-09 M and the “IC50, blocking PDGF-DD” value is 1.1e-09 M.

Another assay concerns the target T1, Macaca fascicularis PDGFRb.mmh. Nature of the assay: SPR, mAb captured, 25 C. As for the experimental part: (§1) Antibodies, expressed as either mouse Fc (prefix H1M; H2M) or human Fc (prefix H4H), were captured on their respective anti-Fc sensor surfaces (Mab capture format). […] Kinetic association (kₐ) and dissociation (kd) rate constants were determined by processing and fitting the data to a 1:1 binding model using Scrubber 2.0 curve fitting software.
On the technique in general: Surface plasmon resonance follows binding to a sensor surface in real time, without labels.
In the case of B5, the binding result was “no binding”.

On to B1, for which the Kd (usually a measure of binding affinity in units of concentration) turned out to be 6.39 nM; the koff (commonly the rate constant with which the complex falls apart) was determined as 0.00117 s⁻¹; the kon (as a rule, the second-order rate constant of association) was 182000 M⁻¹ s⁻¹; the t1/2 is 10 min.

In the case of B2, binding was put at a Kd of 1.73 nM, the off-rate constant (koff) was found to be 0.000489 s⁻¹, the kon was found to be 283000 M⁻¹ s⁻¹ and the t1/2 was 24 min.

On to B3, for which the Kd came to 0.909 nM, the off-rate (koff) stood at 0.000714 s⁻¹, the kon came to 786000 M⁻¹ s⁻¹ and the t1/2 was determined as 16 min.

Consider B4, for which the affinity, expressed as Kd, was 68.9 nM; the koff turned out to be 0.0094 s⁻¹; the on-rate constant (kon) came to 136000 M⁻¹ s⁻¹; the t1/2 stood at 1.2 min.

The target of another assay is T2, human PDGFRb.hFc (human).
T2 construct: Soluble dimeric construct with human Fc; also called hPDGFRb.hFc
Briefly: SPR, mAb captured, 25 C. The protocol: as §1
On to B5, for which the binding result is on record as “no binding”.

B1: the Kd came out at 1.17 nM, the off-rate (koff) was determined as 0.00026 s⁻¹, the kon was 222000 M⁻¹ s⁻¹ and the t1/2 stood at 44 min.

Molecule B2 gave a dissociation constant Kd of 0.39 nM, an off-rate constant (koff) of 0.000118 s⁻¹, a kon of 300000 M⁻¹ s⁻¹ and a t1/2 of 98 min.

In turn, B3 had a Kd of 0.304 nM, a koff of 0.000146 s⁻¹, a kon of 480000 M⁻¹ s⁻¹ and a t1/2 of 79 min.

Take B4: binding was characterised by a dissociation constant (Kd) of 0.219 nM, the off-rate constant (koff) came out at 6.22e-05 s⁻¹, the on-rate (kon) came out at 280000 M⁻¹ s⁻¹ and the t1/2 came to 186 min.

For the next assay, the target named is T3, hPDGFRb.mmh (human, UniProt P09619 33-531).
T3 construct: Soluble monomeric construct; also called soluble human PDGFR-beta.mmh
Briefly: SPR, mAb captured, 25 C. As for the experimental part: as §1
On to B5, for which the binding result is “no binding”.

B1 came in with a Kd of 3.68 nM, a koff of 0.00104 s⁻¹, a kon of 281000 M⁻¹ s⁻¹ and a t1/2 of 11 min.

Consider B2, for which the Kd was 0.89 nM, the koff is 0.000455 s⁻¹, the kon came out at 509000 M⁻¹ s⁻¹ and the t1/2 turned out to be 25 min.

Turning to B3, the equilibrium dissociation constant (Kd) stood at 1.61 nM, the koff turned out to be 0.000688 s⁻¹, the kon is 428000 M⁻¹ s⁻¹ and the t1/2 came to 17 min.

Regarding B4, binding was characterised by a dissociation constant (Kd) of 1.54 nM, the off-rate (koff) turned out to be 0.000596 s⁻¹, the kon was determined as 386000 M⁻¹ s⁻¹ and the t1/2 is 19 min.

A further assay concerns the target T1, Macaca fascicularis PDGFRb.mmh. Nature of the assay: SPR, mAb captured, 37 C. As for the experimental part:
as §1
B1 displayed a Kd of 31.6 nM, a koff of 0.00512 s⁻¹, a kon of 162000 M⁻¹ s⁻¹ and a t1/2 of 2 min.

Regarding B2, binding was characterised by a dissociation constant (Kd) of 2.86 nM, the koff came out at 0.00164 s⁻¹, the kon was found to be 574000 M⁻¹ s⁻¹ and the t1/2 was 7 min.

B3 displayed a Kd of 4.05 nM, a koff of 0.00299 s⁻¹, a kon of 740000 M⁻¹ s⁻¹ and a t1/2 of 4 min.

The molecule B4 gave a Kd of 95.6 nM, a koff of 0.0267 s⁻¹, an on-rate constant (kon) of 280000 M⁻¹ s⁻¹ and a t1/2 of 0.4 min.

In another assay the target is T2, human PDGFRb.hFc. Nature of the assay: SPR, mAb captured, 37 C. As for the experimental part: as §1
With B1, binding was characterised by a dissociation constant (Kd) of 3.1 nM, the koff was found to be 0.000793 s⁻¹, the kon amounted to 250000 M⁻¹ s⁻¹ and the t1/2 worked out at 15 min.

Take B2: binding was put at a Kd of 0.76 nM, the koff came out at 0.000319 s⁻¹, the kon came out at 420000 M⁻¹ s⁻¹ and the t1/2 turned out to be 36 min.

For the molecule B3, the affinity, expressed as Kd, was 0.606 nM; the koff is 0.000567 s⁻¹; the kon is 936000 M⁻¹ s⁻¹; the t1/2 is 20 min.

With B4, binding was put at a Kd of 0.206 nM, the dissociation rate constant (koff) was found to be 7.66e-05 s⁻¹, the kon turned out to be 374000 M⁻¹ s⁻¹ and the t1/2 was determined as 151 min.

For the next assay, the target named is T3, hPDGFRb.mmh. Briefly: SPR, mAb captured, 37 C. The protocol: as §1
Target sequence in this assay (P09619 other isoform, or with tags, fused parts or gaps): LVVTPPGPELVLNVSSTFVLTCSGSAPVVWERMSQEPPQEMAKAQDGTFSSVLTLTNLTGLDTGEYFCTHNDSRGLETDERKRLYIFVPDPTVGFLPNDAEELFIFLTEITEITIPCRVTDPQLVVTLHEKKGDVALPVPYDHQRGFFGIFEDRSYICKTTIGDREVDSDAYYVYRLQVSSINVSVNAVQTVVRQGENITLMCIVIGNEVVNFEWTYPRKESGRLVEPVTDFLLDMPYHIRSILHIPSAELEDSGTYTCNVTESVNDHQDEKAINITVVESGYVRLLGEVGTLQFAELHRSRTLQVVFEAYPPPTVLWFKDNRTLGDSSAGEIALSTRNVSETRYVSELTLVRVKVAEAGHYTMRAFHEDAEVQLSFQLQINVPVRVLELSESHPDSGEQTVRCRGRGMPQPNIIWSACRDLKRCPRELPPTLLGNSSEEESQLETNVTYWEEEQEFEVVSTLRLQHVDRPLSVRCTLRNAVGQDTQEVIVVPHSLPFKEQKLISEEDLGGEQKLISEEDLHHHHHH
Regarding B1, the Kd stood at 13.8 nM, the koff amounted to 0.00624 s⁻¹, the kon turned out to be 452000 M⁻¹ s⁻¹ and the t1/2 is 2 min.

Take B2: the dissociation constant Kd was determined as 1.42 nM, the koff came out at 0.00147 s⁻¹, the kon is 1.04e+06 M⁻¹ s⁻¹ and the t1/2 came out at 8 min.

As for B3, binding was characterised by a dissociation constant (Kd) of 3.37 nM, the koff was 0.0028 s⁻¹, the kon stood at 833000 M⁻¹ s⁻¹ and the t1/2 was 4 min.

For the molecule B4, the affinity, expressed as Kd, was 2.34 nM; the koff is 0.00171 s⁻¹; the kon was 733000 M⁻¹ s⁻¹; the t1/2 came to 7 min.

The target in the next assay is T3, hPDGFRb.mmh. Nature of the assay: blocking ELISA, biot-hPDGFRb.mmh to coated PDGF-BB. As for the experimental part: The equilibrated PDGFR-beta/antibody solutions were added to ligand-coated plates, allowed to incubate for 1 hr, and washed. Levels of bound biot-hPDGFR-beta.mmh were detected using HRP conjugated streptavidin. Data were analyzed using Prism software and IC₅₀ values were calculated as the amount of antibody required to achieve 50% reduction of hPDGFR-beta-mmh bound to ligand. Maximum blocking values were also calculated and reflect the ability of the antibody to block relative to baseline. The absorbance measured at the constant amount of 250 pM biot-hPDGFR-beta-mmh on the dose curve is defined as 0% blocking and the absorbance with no added PDGFR-beta is defined as 100%. The absorbance of the wells containing the highest antibody concentration determined the maximum blocking percent.
In general terms: In an ELISA, binding on a coated surface is turned into a signal by an enzyme label.
Target sequence in this assay (P09619 other isoform, or with tags, fused parts or gaps): as above
On to B5, for which the “% Maximum Blocking” value was found to be 5%.

Regarding B1, the “% Maximum Blocking” value was 84% and the IC50 (usually the point on the concentration scale where inhibition reaches its midpoint) came out at 0.18 nM.

Turning to B2, the “% Maximum Blocking” value came out at 30%.

Regarding B3, the “% Maximum Blocking” value was found to be 89% and the IC50 is 0.38 nM.

In the case of B4, the “% Maximum Blocking” value was -13%.
